Where a SMILES comes first, the peptide text is derived from it. Bridges are numbered along the chain shown (N, C = ends).
Experiments:
[1] = target: T1, α5β1 integrin (Homo sapiens, UniProt P05556+P08648); test: Surface plasmon resonance (Biacore T200); assay type: binding; conditions: biotinylated QS-13 (QKISRCQVCVKYSK-biot) captured on streptavidin CM5 chip; α5β1 integrin 0.12-130 nM; HBS pH 7.4, 3.4 mM EDTA, 0.05% P20, 25°C; Req fitted to 1:1 model
T1 construct: purchased R&D Systems 3230-A5-050
T1 sequence (P08648 42-894 limits assumed): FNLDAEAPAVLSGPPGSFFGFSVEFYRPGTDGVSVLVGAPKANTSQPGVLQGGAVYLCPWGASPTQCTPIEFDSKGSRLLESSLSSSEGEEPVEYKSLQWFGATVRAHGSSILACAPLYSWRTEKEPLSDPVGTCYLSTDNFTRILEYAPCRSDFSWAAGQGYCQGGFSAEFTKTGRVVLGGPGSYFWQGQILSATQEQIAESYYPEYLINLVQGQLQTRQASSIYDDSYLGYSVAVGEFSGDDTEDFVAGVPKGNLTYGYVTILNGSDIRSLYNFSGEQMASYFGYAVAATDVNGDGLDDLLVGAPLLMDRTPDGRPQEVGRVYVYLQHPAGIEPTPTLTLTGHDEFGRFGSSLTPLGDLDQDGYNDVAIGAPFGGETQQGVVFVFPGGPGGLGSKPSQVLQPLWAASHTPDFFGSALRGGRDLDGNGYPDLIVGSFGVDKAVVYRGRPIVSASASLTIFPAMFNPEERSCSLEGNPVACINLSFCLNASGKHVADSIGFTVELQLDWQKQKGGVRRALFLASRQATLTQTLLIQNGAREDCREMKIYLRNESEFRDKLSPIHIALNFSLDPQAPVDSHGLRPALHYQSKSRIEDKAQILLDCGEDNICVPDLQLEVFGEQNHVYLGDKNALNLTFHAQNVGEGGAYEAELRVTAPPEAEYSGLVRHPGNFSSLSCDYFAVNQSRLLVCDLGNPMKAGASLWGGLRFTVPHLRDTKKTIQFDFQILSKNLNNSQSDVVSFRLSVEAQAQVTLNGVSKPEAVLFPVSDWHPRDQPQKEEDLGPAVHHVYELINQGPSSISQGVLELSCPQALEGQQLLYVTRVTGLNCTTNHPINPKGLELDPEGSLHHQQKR
T1 sequence (P08648 895-995 partner limits assumed): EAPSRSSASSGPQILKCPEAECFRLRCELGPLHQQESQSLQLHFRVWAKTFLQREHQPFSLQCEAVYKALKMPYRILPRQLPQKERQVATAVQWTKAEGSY
T1 sequence (P05556 21-728 limits assumed): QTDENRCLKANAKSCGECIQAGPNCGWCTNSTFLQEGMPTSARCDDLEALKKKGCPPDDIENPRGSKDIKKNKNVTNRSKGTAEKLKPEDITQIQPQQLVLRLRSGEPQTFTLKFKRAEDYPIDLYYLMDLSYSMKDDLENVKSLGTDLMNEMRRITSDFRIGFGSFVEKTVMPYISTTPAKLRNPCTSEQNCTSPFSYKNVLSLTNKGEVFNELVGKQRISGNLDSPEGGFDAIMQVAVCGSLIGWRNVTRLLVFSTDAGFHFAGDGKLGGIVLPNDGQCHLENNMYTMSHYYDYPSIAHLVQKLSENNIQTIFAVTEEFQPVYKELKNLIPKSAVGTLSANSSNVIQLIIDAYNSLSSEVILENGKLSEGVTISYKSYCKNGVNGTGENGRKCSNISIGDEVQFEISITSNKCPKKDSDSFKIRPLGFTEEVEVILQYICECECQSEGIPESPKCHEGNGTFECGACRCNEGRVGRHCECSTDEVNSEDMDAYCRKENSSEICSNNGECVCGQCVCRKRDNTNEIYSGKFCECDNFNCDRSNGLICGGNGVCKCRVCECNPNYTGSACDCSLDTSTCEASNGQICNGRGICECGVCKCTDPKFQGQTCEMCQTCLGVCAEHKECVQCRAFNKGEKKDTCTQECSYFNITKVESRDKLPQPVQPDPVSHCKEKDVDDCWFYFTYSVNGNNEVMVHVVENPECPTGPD
Experimental: All experiments were performed on a Biacore T200 instrument (GE Healthcare) at 25°C. Sensor surfaces and other Biacore consumables were purchased from GE Healthcare. Integrin α5β1 was from R&D Systems. The running buffer, HEPES buffered saline (HBS, composed of 0.01 M HEPES, pH 7.4, 0.15 M NaCl, 3.4 mM EDTA) was filtered through a 0.22 μm membrane and supplemented with 0.05% P20. Biotinylated peptides were captured on streptavidin-coated sensor chips. Briefly, CM5 sensor chips (GE Healthcare) were preconditioned by duplicate injections of 10 mM HCl, 50 mM NaOH, each for 10 s, and water for 20 s. Before covalent immobilization of streptavidin, traces of biotinylated products that could remain in the flow system were neutralized by injecting a streptavidin solution (0.1 mg/mL in running buffer) for 5 min through all flow cells ([Baltzinger et al., 2013]). Streptavidin was then stably immobilized using standard amine-coupling methods. The flow rate was 10 μL/min. […] The equilibrium response (Req) was recorded 5 s before the end of integrin injection. The KD was determined by fitting the equilibrium response versus the [integrin] curve to a simple 1:1 interaction model with the Biacore T200 evaluation software (GE Healthcare).

[2] = test system: cancer; conditions: ref Stoeltzing et al., 2003; Khalili et al., 2006; cited from earlier work
Text: Peptides also emerged as important therapeutic agents in angiogenesis-dependent diseases due to their low toxicity and high specificity ([Rosca et al., 2011]).

[3] = test system: cancer patients; parameters: method as in 3 sources, one per row (each row's own in cited_ref): ref Besse et al., 2013 ||| ref Cianfrocca et al., 2006 ||| ref Alday-Parejo et al., 2019; conditions: cited from earlier work
[4] = test system: angiogenesis, tumor growth and metastasis; parameters: method as in Almokadem and Belani, 2012; conditions: mice; ref Almokadem and Belani, 2012; cited from earlier work
[5] = target: T1, α5β1 integrin; test: Solid phase assay, binding to coated integrin; conditions: coated 25 nM α5β1 integrin; biotinylated QS-13 90 min, room temperature, 1 mM MgCl2 and CaCl2; streptavidin-peroxidase/TMB 450 nm; n = 4, 2 experiments
Experimental: Wells of a 96-well plate were coated with 25 nM α5β1 integrin (3230-A5-050; R&D Systems, Lille, France) in amounts overnight at room temperature. The coating was then blocked with TBS containing 5% dry milk, 1 mM MgCl2, and 1 mM CaCl2 for 2 h at room temperature. After washing three times with washing buffer (0.1% dry milk, 1 mM MgCl2, and 1 mM CaCl2 in TBS), the plate was incubated for 90 min at room temperature with 100 μL per well of ranging from 1.25 to 20.10^–11 moles/well biotinylated-QS-13 diluted in washing buffer. After 3 washes, 100 μL of streptavidin-peroxidase diluted 1/20000 in washing buffer were added to each well and incubated for 15 min at room temperature. After 4 washes, 100 μL per well of tetramethylbenzidine (TMB), a peroxidase substrate, were added and incubated in the dark for 15 min. The enzymatic reaction was stopped by adding 50 μL per well of 0.5 M H2SO4. The intensity of the yellow coloration was measured at 450 nm with a Biochrom Asys UVM 340 microplate reader.

[6] = test system: HUVEC adhesion on QS-13; test: HUVEC adhesion on QS-13 coating with effector preincubation; assay type: cell-based, Human; conditions: peptide 20 μg/mL (legend Figure 5), 30 min preincubation; adhesion 60 min; n = 8, p < 0.001
Experimental: Cells were detached with 50 mM Hepes, 125 mM NaCl, 5 mM KCl, and 1 mM EDTA, washed three times with ECGM, pre-incubated for 30 min with effectors [mouse anti-human α5β1, catalog number 555614 from BD Pharmingen (10 μg/mL), irrelevant IgG ([…])]. 10,000 cells were seeded per well of a 96 well-plate previously coated with QS-13 and saturated with 1% BSA. After 60 min, cells were washed three times with HEPES buffered Balanced Salt Solution, fixed with 1.1% glutaraldehyde solution and stained with 1% crystal violet solution. Staining was extracted with 10% acetic acid and absorbance was read at 560 nm.
For in vitro experiments, results are expressed as the mean ± SD and statistical significance were determined using Student’s t-test. For in vivo experiments, the non-parametric Mann–Whitney test was performed.

[7] = target: Biotinylated QS-13 (…-biot); test: SPR; Biacore T200, 25°C; biotinylated QS-13 captured on a streptavidin-coated CM5 chip; α5β1 integrin injected at 0.12-130 nM, 300 s; HBS (0.01 M HEPES pH 7.4, 0.15 M NaCl, 3.4 mM EDTA) with 0.05% P20; reference surface with an irrelevant biotinylated peptide; equilibrium response fitted to a 1:1 model
[8] = target: QS-13 peptide (…), minimal active sequence of Tetrastatin, the α4(IV) NC1 domain of collagen IV
[9] = target: QS-13 peptide (…), minimal active sequence of Tetrastatin, the α4(IV) NC1 domain of collagen IV; remark: listed apart in the source
[10] = test system: angiogenesis; conditions: ref Petitclerc et al., 2000; Wietecha et al., 2013; Monboisse et al., 2014; cited from earlier work
Text: Basement membrane are composed of type IV collagen in association with other minor collagens, such as collagens XVIII or XIX, laminins, nidogens, and perlecan. Type IV collagen is composed of three α(IV) chains, out of six possible [α1(IV)-α6(IV)]. Each α(IV) chain comprises a 7S N-terminal domain, a long interrupted triple helical domain and a globular C-terminal non-collagenous (NC1) domain ([Wu and Ge, 2019]).

[11] = test system: αvβ3 integrin; conditions: tumor cell surface; ref Pasco et al., 2000; Brassart-Pasco et al., 2012; Lambert et al., 2018; cited from earlier work
Text: The NC1 domains of the different α(IV) collagen chains were reported to exert anti-tumor or anti-angiogenic effects ([Mundel and Kalluri, 2007]; [Monboisse et al., 2014]; [Brassart-Pasco et al., 2020]).

[12] = target: T1, α5β1 integrin; parameters: method as in Sudhakar et al., 2003; conditions: ref Sudhakar et al., 2003; cited from earlier work

Molecule: CC[C@H](C)[C@H](NC(=O)[C@H](CCCCN)NC(=O)[C@@H](N)CCC(N)=O)C(=O)N[C@@H](CO)C(=O)N[C@@H](CCCNC(=N)N)C(=O)N[C@H]1CSSC[C@@H](C(=O)N[C@H](C(=O)N[C@@H](CCCCN)C(=O)N[C@@H](Cc2ccc(O)cc2)C(=O)N[C@@H](CO)C(=O)O)C(C)C)NC(=O)[C@H](C(C)C)NC(=O)[C@H](CCC(N)=O)NC1=O [QS-13, QKISRCQVCVKYS] (H-QKISRCQVCVKYS-OH; disulfide 6-9)
- Kd [1]: 20.3 ± 7.5 nM

Molecule: Ac-PHSCN-NH(2) [ATN-161, reference compound]
- preclinical anti-cancer activity [2]: showed preclinical anti-cancer activities
- clinical benefit ([3]; ref Cianfrocca et al., 2006): failed to provide therapeutic benefits

Molecule: M200/volociximab: anti-α5β1 integrin antibody
- effect on angiogenesis, tumor growth and metastasis [4]: inhibit angiogenesis and to suppress tumor growth and metastasis in mice
- efficacy in advanced NSCLC ([3]; ref Besse et al., 2013): preliminary evidence of efficacy in advanced NSCLC

Molecule: QKISRCQVCVKYSK-biot (disulfide) [biotinylated-QS-13]
- binding to α5β1 integrin [5]: binds to α5β1 integrin in a ligand concentration dependent manner

Molecule: RGDS [RGDS peptide, RGDS peptide (Sigma)]
- inhibition of HUVEC adhesion on QS-13 coating (peptide competition) [6]: about 60%

Molecule: α5β1 integrin (recombinant, R&D Systems 3230-A5-050) (from UniProt P08648 42-1049; P05556 21-728) (receptor)
- Kd [7]: 20.3 nM

Molecule: α5β1 integrin of Human Umbilical Vein Endothelial Cells (HUVEC) (from UniProt P05556 21-798) (receptor)
- HUVEC adhesion on coated QS-13 after 30 min pre-incubation of the cells with RGDS peptide: change of adhesion [8]: -60%
- HUVEC adhesion on coated QS-13 after pre-incubation of the cells with a blocking anti-α5β1 integrin antibody (10 μg/mL): inhibition of adhesion; an irrelevant IgG had no effect [9]: 71%

B1: Arresten: the α1(IV) NC1 domain (protein, UniProt P02462 1445-1669, looked up)
Arresten: GFLVTRHSQTIDDPQCPSGTKILYHGYSLLYVQGNERAHGQDLGTAGSCLRKFSTMPFLFCNINNVCNFASRNDYSYWLSTPEPMPMSMAPITGENIRPFISRCAVCEAPAMVMAVHSQTIQIPPCPSGWSSLWIGYSFVMHTSAGAEGSGQALASPGSCLEEFRSAPFIECHGRGTCNYYANAYSFWLATIERSEMFKKPTPSTLKAGELRTHVSRCQVCMRRT
modifications: Arresten
notes: the α1(IV) NC1 domain
- effect on angiogenesis [10]: inhibit angiogenesis

B2: Canstatin: the α2(IV) NC1 domain (protein, UniProt P08572 1486-1712, looked up)
Canstatin: VSIGYLLVKHSQTDQEPMCPVGMNKLWSGYSLLYFEGQEKAHNQDLGLAGSCLARFSTMPFLYCNPGDVCYYASRNDKSYWLSTTAPLPMMPVAEDEIKPYISRCSVCEAPAIAIAVHSQDVSIPHCPAGWRSLWIGYSFLMHTAAGDEGGGQSLVSPGSCLEDFRATPFIECNGGRGTCHYYANKYSFWLTTIPEQSFQGSPSADTLKAGLIRTHISRCQVCMKNL
modifications: Canstatin
notes: the α2(IV) NC1 domain
- effect on angiogenesis [10]: inhibit angiogenesis

B3: Tumstatin: the α3(IV) NC1 domain (protein, UniProt Q01955 1426-1670, looked up)
Tumstatin: PGLKGKRGDSGSPATWTTRGFVFTRHSQTTAIPSCPEGTVPLYSGFSFLFVQGNQRAHGQDLGTLGSCLQRFTTMPFLFCNVNDVCNFASRNDYSYWLSTPALMPMNMAPITGRALEPYISRCTVCEGPAIAIAVHSQTTDIPPCPHGWISLWKGFSFIMFTSAGSEGTGQALASPGSCLEEFRASPFLECHGRGTCNYYSNSYSFWLASLNPERMFRKPIPSTVKAGELEKIISRCQVCMKKRH
modifications: Tumstatin
notes: the α3(IV) NC1 domain
- integrin mediating anti-tumor activity [11]: mediated through binding to αvβ3 integrin
- effect on angiogenesis [10]: inhibit angiogenesis

B4: endostatin: 20-kDa C-terminal fragment of type XVIII collagen (protein, UniProt P39060 1572-1754, looked up)
Endostatin: HSHRDFQPVLHLVALNSPLSGGMRGIRGADFQCFQQARAVGLAGTFRAFLSSRLQDLYSIVRRADRAAVPIVNLKDELLFPSWEALFSGSEGPLKPGARIFSFDGKDVLRHPTWPQKSVWHGSDPNGRRLTESYCETWRTEAPSATGQASSLLGGRLLGQSAASCHHAYIVLCIENSFMTASK
modifications: Endostatin
notes: 20-kDa C-terminal fragment of type XVIII collagen
- effect on α5β1 integrin [12]: inhibit α5β1 integrin
- clinical results with chemotherapies and radiotherapies ([3]; combination, ref Alday-Parejo et al., 2019): the results were inconsistent

— publication PMC7431705, “Angiogenesis Inhibition by a Short 13 Amino Acid Peptide Sequence of Tetrastatin, the α4(IV) NC1 Domain of Collagen IV” (Frontiers in Cell and Developmental Biology, 2020)
